The source of these data is paper PMC1277818, “Substrate specificity analysis of protein kinase complex Dbf2-Mob1 by peptide library and proteome array screening” (BMC Biochemistry, 2005).

Sequences and labels used below:
T1: FHHDbf2-H6Mob1TM9 (Saccharomyces cerevisiae, UniProt P22204+P40484)
T1 construct: made in house; host or cells: Hi5 insect cells (baculovirus)
T1 sequence (P22204 1-572): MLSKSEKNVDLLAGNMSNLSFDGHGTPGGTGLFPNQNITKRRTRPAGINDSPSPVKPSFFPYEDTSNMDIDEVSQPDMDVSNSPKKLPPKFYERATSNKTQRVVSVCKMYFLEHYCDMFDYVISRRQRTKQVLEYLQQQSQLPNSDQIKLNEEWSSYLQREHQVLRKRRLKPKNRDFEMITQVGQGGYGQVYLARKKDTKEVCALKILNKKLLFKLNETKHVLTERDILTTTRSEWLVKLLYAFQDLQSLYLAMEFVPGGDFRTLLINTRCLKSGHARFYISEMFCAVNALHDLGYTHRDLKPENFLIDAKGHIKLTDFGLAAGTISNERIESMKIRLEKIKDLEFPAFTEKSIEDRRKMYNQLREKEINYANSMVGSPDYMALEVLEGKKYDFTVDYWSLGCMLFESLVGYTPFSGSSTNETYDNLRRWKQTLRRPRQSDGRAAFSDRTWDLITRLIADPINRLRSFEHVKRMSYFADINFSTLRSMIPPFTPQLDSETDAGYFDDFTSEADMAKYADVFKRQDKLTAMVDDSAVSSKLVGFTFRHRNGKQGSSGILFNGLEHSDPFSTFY
T1 sequence (P40484 1-314 partner): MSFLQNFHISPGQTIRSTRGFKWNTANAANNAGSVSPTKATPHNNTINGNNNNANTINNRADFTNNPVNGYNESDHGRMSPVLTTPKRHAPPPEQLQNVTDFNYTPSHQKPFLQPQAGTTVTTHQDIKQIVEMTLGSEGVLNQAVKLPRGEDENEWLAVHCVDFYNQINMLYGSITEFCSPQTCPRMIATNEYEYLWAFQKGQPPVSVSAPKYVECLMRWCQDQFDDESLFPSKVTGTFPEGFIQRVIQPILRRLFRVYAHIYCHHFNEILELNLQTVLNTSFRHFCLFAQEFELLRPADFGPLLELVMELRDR

B1: YNL101W: GST fusion yeast protein on proteome chip (protein, UniProt P50944 1-713, looked up)
Vacuolar amino acid …: MVTNNGDGEHLGIRRNGNLRHPSNNMKIPRRAQSTVLNSNPFYSRKYSMSTLTPRDICRSVDSRVFVDMSSPNFQTLEDPHRDEIINSVRLNYLNSSKRSSVSHGNEAIPRVNPTKNSSASTIAAANVDSDDDETNLSSAGGDITHDIYKLVKAEDPKRLRRPRSMENVTPKIEHHTKLSSASGLNVPGGFRREFIVNKKRQEHQLNDSASSDFTSHESDSINQSSPSSNQDIDKVPFLTRNFLEFLYVFGHFAGESFEDDFIPDSSNMMIRGEDERSALLSRPDHMKVLPSAKGTTSTKKVFLILLKSFIGTGVLFLPNAFHNGGLFFSVSMLAFFGIYSYWCYYILVQAKSSCGVSSFGDIGLKLYGPWMRIIILFSLVITQVGFSGAYMIFTAKNLQAFLDNVFHVGVLPLSYLMVFQTIIFIPLSFIRNISKLSLPSLLANFFIMAGLVIVIIFTAKRLFFDLMGTPAMGVVYGLNADRWTLFIGTAIFAFEGIGLIIPVQDSMRNPEKFPLVLALVILTATILFISIATLGYLAYGSNVQTVILLNLPQSNIFVNLIQLFYSIAIMLSTPLQLFPAIKIIENKFFPKFTKIYVKHDDLTTRVELRPNSGKLNWKIKWLKNFIRSIIVIIVVSIAYFGSDNLDKFVSVIGSLACIPLVYIYPSMLHLRGNSLPETKGEFWRFKPMLDTILIFFGIASMLYTSYQSIFGV
modifications: GST tag
notes: GST fusion yeast protein on proteome chip
B2: YBR118W: GST fusion yeast protein on proteome chip (protein, UniProt P02994 2-458, looked up)
Elongation factor 1-alpha: GKEKSHINVVVIGHVDSGKSTTTGHLIYKCGGIDKRTIEKFEKEAAELGKGSFKYAWVLDKLKAERERGITIDIALWKFETPKYQVTVIDAPGHRDFIKNMITGTSQADCAILIIAGGVGEFEAGISKDGQTREHALLAFTLGVRQLIVAVNKMDSVKWDESRFQEIVKETSNFIKKVGYNPKTVPFVPISGWNGDNMIEATTNAPWYKGWEKETKAGVVKGKTLLEAIDAIEQPSRPTDKPLRLPLQDVYKIGGIGTVPVGRVETGVIKPGMVVTFAPAGVTTEVKSVEMHHEQLEQGVPGDNVGFNVKNVSVKEIRRGNVCGDAKNDPPKGCASFNATVIVLNHPGQISAGYSPVLDCHTAHIACRFDELLEKNDRRSGKKLEDHPKFLKSGDAALVKFVPSKPMCVEAFSEYPPLGRFAVRDMRQTVAVGVIKSVDKTEKAAKVTKAAQKAAKK
modifications: GST tag
notes: as for B1
B3: YIL135C: GST fusion yeast protein on proteome chip (protein, UniProt P40463 1-436, looked up)
Protein VHS2: MDTSNHNQDHDSHVAAQRENDNNYMPPSPSMSESSMIFERNVEDPSYLYKTVSNNAANSLSRQSSRTSLFNHNNSSNRNFHNLSQRSSAVNLHLQPSRTNESIASYQTYNPDFVVQTPLDHRRTLENFVPPALDAGCSIVTDDTTGLDDVDMVYSRRPSTIGLDRALGRTRSLSSQSFDNETSPAHPRSPNDHGSRLLRFYSYADMLSDDNNNNVSNATSTSSTANPLRRPPMQGHYSFSSSLLNSPSHLPSPPSASASPPQHMNFTNPFIISRRYSNTTINNANGGTSAGSTTGAALSRSPSNQQYLLKQQRSPSGSARSRRNSNRPGSAANIMIGKPKSKFHMESSGSEGFSSEEEDNTMIERDKLNLKQKLQSQLAQPPSIANMVNDNHNNTNKHKNTINNNIKNSPAFTNSNPSSKSNSNSTITSMNPDTTK
modifications: GST tag
notes: as for B1
B4: YNR006W: GST fusion yeast protein on proteome chip (protein, UniProt P40343 1-622, looked up)
Vacuolar protein …: MSVSTPSELDALIEQATSESIPNGDLDLPIALEISDVLRSRRVNPKDSMRCIKKRILNTADNPNTQLSSWKLTNICVKNGGTPFIKEICSREFMDTMEHVILREDSNEELSELVKTILYELYVAFKNDSQLNYVAKVYDKLISRGIKFPEKLTLSNSPTAMFDSKTPADWIDSDACMICSKKFSLLNRKHHCRSCGGVFCQEHSSNSIPLPDLGIYEPVRVCDSCFEDYDLKRHDDSKKSKKHRHKRKKDRDYSTPEDEEELIRKAIELSLKESRNSASSEPIVPVVESKNEVKRQEIEEEEDPDLKAAIQESLREAEEAKLRSERQKASRQMQPQQPSPQPQPIHSVDLSDEEKDSIYMFASLVEKMKSRPLNEILEDSKLQNLAQRVFASKARLNYALNDKAQKYNTLIEMNGKISEIMNIYDRLLEQQLQSINLSQQYTLPQVPSDPYNYLTENVQNPAESYQTPPLQQLSSHQYKPQQDVSRQQSVKANSSPTTNIDHLKTIDVTPHAQQKPQSHVELAPSDPPYPKEEAEDEGTQAVQDEESSTQESRERPYPVETENGETSINKRPQGITRYDFPTVPARKFVQPESTVPLPASSSEIPIKEERPPSPQEELLIEL
modifications: GST fusion
notes: as for B1
B5: YDL019C: GST fusion yeast protein on proteome chip (protein, UniProt Q12451 2-1283, looked up)
Oxysterol-binding protein …: SREDLSIAEDLNQVSKPLLKVKLLEVLGQGDFKHLKALVDNEFQPKDDPSVQQVLNLILHYAVQVAPILLIKEIVAHWVDQVGDEKSSSKSDDGIHLDLNYQDENGNTPLHLAAAQSRSDVISFLLSQKSINDCVKNKAHQQPLDMCKDLNVAQMIQLKRDDYFLETVHSLRAAMNKRDFSKLDSIWKNPRNLNLLDINGIDPETGTTLLYEYSQKKDIEMCQWLLKHGAEATVKDGKGRSPLDLVKNIKLPAKPSNNVTPEIKLKNLLEKNLREQAIVHEDVASSKPPTYKGFLKKWTNFAHGYKLRWFILSGDGNLSYYKDQSHVDRPRGTLKVSTCRLHIDSSEKLNFELLGGITGTTRWRLKGNHPIETTRWVNAIQSAIRFAKDKEILNKKKAVPPSLALKNKSPALISHSKTQGSLPEASQYYQHTLHKEVIQPSSVSLYRRPSNNLSVVSSEIQLNDNLTESGKRFVSKMIENRLDGSKTPVGVHTGSALQRVRSSNTLKSNRSMQSGSGVASPIDKVPNGANLSQSNTTTGSTASLSDNNYIDNFEGDEANSDDEEEDLGINFDRDEEYIKAQYGPYKEKLDMYEQAISIELSSLIELIEQEEPSPEVWLTIKKSLINTSTIFGKLKDLTYKRDKRLVDMVSKQGDVNNVWVQSVKELEMELSNKTERLASIDKERRGLKKILHKKLLESHATAGNKESLENDKEQESDTTASTLGQIAKFISATKEEDEASDADEFYDAAELVDEVTELTEAHPEISTAAAPKHAPPPVPNETDNDSQYVQDEKSKIESNVEKTSQKFEKQNNLVTEDEPKTDQSLKNFKAEDKESQVKEKTKEIASSVIGEKTIVAVTTVQKRKEEYLLKEGSYLGYEDGIRKRLSMDKDDRPKISLWAVLKSMVGKDMTRMTLPVTFNEPTSLLQRVAEDLEYSELLDQAATFEDSTLRTLYVAAFTASSYASTTKRVAKPFNPLLGETFEYSRPDKQYRFFTEQVSHHPPISATWTESPRWDFWGESFVDTKFNGRSFNVKHLGLWHIKLRPNDNEKEELYTWKKPNNTVIGILIGNPQVDNHGEVNVVNHTTGDHCKLYFKARGWRSSGAYEITGEVYNKKKQKVWILGGHWNEAIFAKKVVKDGDLSLEKTRTAASAGNGPTDDGTKFLIWKANDRPEEPFNLTPFAITLNAPQPHLLPWLPPTDTRLRPDQRAMEDGRYDEAGDEKFRVEEKQRAARRKREENNLEYHPQWFVRDTHPITKAKYWRYTGKYWVKRRDHDLKDCGDIF
modifications: GST fusion
notes: as for B1
B6: YMR239C: GST fusion yeast protein on proteome chip (protein, UniProt Q02555 1-471, looked up)
Ribonuclease 3: MGSKVAGKKKTQNDNKLDNENGSQQRENINTKTLLKGNLKISNYKYLEVIQLEHAVTKLVESYNKIIELSPNLVAYNEAVNNQDRVPVQILPSLSRYQLKLAAELKTLHDLKKDAILTEITDYENEFDTEQKQPILQEISKADMEKLEKLEQVKREKREKIDVNVYENLNEKEDEEEDEGEDSYDPTKAGDIVKATKWPPKLPEIQDLAIRARVFIHKSTIKDKVYLSGSEMINAHNERLEFLGDSILNSVMTLIIYNKFPDYSEGQLSTLRMNLVSNEQIKQWSIMYNFHEKLKTNFDLKDENSNFQNGKLKLYADVFEAYIGGLMEDDPRNNLPKIRKWLRKLAKPVIEEATRNQVALEKTDKLDMNAKRQLYSLIGYASLRLHYVTVKKPTAVDPNSIVECRVGDGTVLGTGVGRNIKIAGIRAAENALRDKKMLDFYAKQRAAIPRSESVLKDPSQKNKKRKFSDTS
modifications: GST fusion
notes: as for B1

The first assay deals with T1, FHHDbf2-H6Mob1TM9. Briefly: Yeast proteome chip assay. It counts as biochemical. The settings on record: Table 3; GST fusion proteins on proteome chip, [γ-33P]ATP, chips in duplicate, computer analysis. The method, then:
The relatively low sequence complexity of the Dbf2 phosphorylation motif diminished the power of using genome-wide bioinformatics screens to identify putative substrates. Accordingly, we carried out a proteome array screen to identify putative yeast substrates. […] After taking into account the proteins phosphorylated in the negative controls, 67 proteins were determined to be putative Dbf2-Mob1 substrates (Table 3).
Yeast proteome microarrays were prepared as previously described. Overexpressed GST-tagged yeast proteins were purified from ~4,400 yeast strains and spotted on slides. To determine the optimal amount of kinase to use for probing proteome chips, we performed trial assays as described (J. Ptacek et al., submitted). […] The full proteome array was probed with 4 μl ^FHHDbf2-^H6Mob1^TM9 in 200 μl of DKB supplemented with [γ-^33P]ATP. As a control, ^FHHDbf2(N305A)-^H6Mob1^TM9 was used to probe the proteome array. […] To control for autophosphorylated proteins, the proteome array was probed with 200 μl of DKB supplemented with [γ-^33P]ATP. Proteome chips were assayed in duplicate in each case. Data analysis was performed as described (J. Ptacek et al., submitted). Briefly, signals were analyzed by a computer algorithm designed to normalize background and identify signals as positive if 3 of 4 spots (each protein is spotted twice on each slide and each kinase or control was tested on 2 slides) were 2 standard deviations above background and the fourth spot was 1.5 standard deviations above background.
As to B1, the “Slide Signal (after normalization)” value turned out to be 2.1486.
Same read-out and setting: in the case of B2 it was 2.619; in that of B3, 1.116; in that of B4, 1.1429.
Turning to B5, the “Slide Signal (after normalization)” value was 0.9962.
On the same count and under the same terms, the value for B6 was 1.593.

Still in this assay, the particulars now being: Table 4, the 25 proteins with highest signal relative to protein amount; [γ-33P]ATP, chips in duplicate.
B1: the “Slide Signal (after normalization)” value is reported as 2.1486.
As for B2, the “Slide Signal (after normalization)” value was determined as 2.619.
The same measure, in the same setting: in the case of B3 it was 1.116; in that of B4, 1.1429.
The same measure, in the same setting: in the case of B5 it was 0.9962.
B6: the “Slide Signal (after normalization)” value stood at 1.593.
